Earlier results, collected in patent publication US20230042670A1, “Hypoparathyroidism Treatment” (Ascendis Pharma Bone Diseases A/S, priority 2020, published 2023).

What was measured:
[1] = in vivo
[2] = test system: patients with hypoparathyroidism

## PTH(1-84): short acting PTH molecule, approved drug for hypoparathyroidism; PTH 1-84, SEQ ID NO: 1
[1]
  half-life: ~3 h
[2]; on treatment versus placebo, 24 weeks
  clinical episodes of hypercalcemia: numerical increase
[2]; versus placebo, 24 weeks
  clinical episodes of hypocalcemia: no significant difference
  urinary calcium excretion: no significant difference
[2]; week 24, 50 μg per day titrated up to 100 μg
  patients achieving the primary endpoint (50% or greater reduction in daily oral calcium and active vitamin D while maintaining serum calcium): 53%
